From paper doi:10.1101/2025.06.20.660705

Biological target: RNF13 DN-HA (dominant-negative RNF13, HA-tagged) (human) (UniProt O43567)
Experiment: co-IP

UniProt O43567, sequence (O43567 35-381): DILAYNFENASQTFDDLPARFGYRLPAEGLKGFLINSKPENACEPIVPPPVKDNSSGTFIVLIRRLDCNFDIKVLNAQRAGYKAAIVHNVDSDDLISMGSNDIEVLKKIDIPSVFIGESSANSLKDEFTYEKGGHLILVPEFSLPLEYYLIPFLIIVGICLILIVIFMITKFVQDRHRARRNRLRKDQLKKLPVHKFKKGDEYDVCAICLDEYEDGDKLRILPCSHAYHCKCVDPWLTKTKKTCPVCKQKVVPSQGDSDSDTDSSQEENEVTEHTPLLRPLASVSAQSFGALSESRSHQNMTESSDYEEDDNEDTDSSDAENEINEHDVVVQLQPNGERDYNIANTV

amount of IDS co-immunoprecipitated relative to RNF13 WT: 50%
B1: IDS-V5 (wild-type, full-length human iduronate 2-sulfatase, C-terminal V5 tag) (enzyme)
chain: SETQANSTTDALNVLLIIVDDLRPSLGCYGDKLVRSPNIDQLASHSLLFQNAFAQQAVCAPSRVSFLTGRRPDTTRLYDFNSYWRVHAGNFSTIPQYFKENGYVTMSVGKVFHPGISSNHTDDSPYSWSFPPYHPSSEKYENTKTCRGPDGELHANLLCPVDVLDVPEGTLPDKQSTEQAIQLLEKMKTSASPFFLAVGYHKPHIPFRYPKEFQKLYPLENITLAPDPEVPDGLPPVAYNPWMDIRQREDVQALNISVPYGPIPVDFQRKIRQSYFASVSYLDTQVGRLLSALDDLQLANSTIIAFTSDHGWALGEHGEWAKYSNFDVATHVPLIFYVPGRTASLPEAGEKLFPYLDPFDSASQLMEPGRQSMDLVELVSLFPTLAGLAGLQVPPRCPVPSFHVELCREGKNLLKHFRFRDLEEDPYLPGNPRELIAYSQYPRPSDIPQWNSDKPSLKDIKIMGYSIRTIDYRYTVWVGFNPDEFLANFSDIHAGELYFVDSDPLQDHNMYNDSQGGDLFQLLMP
